Molecular target: αvβ3 integrin (human, UniProt P06756 31-1048; P05106 27-788)
Test: cell-based or functional assay

αvβ3 integrin, sequence (P06756 31-1048, chain 1 of 2): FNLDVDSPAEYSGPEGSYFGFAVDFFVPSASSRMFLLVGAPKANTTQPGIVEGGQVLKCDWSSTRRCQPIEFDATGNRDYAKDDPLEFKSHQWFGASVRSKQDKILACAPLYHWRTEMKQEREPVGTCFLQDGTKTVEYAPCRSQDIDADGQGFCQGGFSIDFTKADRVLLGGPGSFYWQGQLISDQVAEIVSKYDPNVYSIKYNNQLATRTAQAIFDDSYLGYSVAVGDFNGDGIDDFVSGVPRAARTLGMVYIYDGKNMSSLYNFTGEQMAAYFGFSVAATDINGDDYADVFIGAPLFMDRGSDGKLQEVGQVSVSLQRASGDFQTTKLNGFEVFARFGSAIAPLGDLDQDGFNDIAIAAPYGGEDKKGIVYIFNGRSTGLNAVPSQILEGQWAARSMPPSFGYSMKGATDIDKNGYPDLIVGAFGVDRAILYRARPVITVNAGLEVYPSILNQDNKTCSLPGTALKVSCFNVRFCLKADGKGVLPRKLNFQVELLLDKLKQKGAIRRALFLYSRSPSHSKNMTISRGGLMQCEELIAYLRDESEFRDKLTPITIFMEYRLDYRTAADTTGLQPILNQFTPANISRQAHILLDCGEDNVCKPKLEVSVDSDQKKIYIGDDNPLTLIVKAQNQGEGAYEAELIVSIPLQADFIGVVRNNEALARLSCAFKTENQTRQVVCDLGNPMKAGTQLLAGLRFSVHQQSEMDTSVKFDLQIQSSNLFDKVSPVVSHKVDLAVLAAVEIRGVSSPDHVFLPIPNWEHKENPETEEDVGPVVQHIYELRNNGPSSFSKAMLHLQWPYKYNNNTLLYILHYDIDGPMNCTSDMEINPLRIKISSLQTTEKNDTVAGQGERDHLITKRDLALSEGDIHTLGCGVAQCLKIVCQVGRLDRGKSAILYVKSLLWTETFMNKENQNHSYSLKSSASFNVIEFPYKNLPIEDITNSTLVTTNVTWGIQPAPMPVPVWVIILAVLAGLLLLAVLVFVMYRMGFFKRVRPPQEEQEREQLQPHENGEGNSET
αvβ3 integrin, sequence (P05106 27-788, chain 2 of 2): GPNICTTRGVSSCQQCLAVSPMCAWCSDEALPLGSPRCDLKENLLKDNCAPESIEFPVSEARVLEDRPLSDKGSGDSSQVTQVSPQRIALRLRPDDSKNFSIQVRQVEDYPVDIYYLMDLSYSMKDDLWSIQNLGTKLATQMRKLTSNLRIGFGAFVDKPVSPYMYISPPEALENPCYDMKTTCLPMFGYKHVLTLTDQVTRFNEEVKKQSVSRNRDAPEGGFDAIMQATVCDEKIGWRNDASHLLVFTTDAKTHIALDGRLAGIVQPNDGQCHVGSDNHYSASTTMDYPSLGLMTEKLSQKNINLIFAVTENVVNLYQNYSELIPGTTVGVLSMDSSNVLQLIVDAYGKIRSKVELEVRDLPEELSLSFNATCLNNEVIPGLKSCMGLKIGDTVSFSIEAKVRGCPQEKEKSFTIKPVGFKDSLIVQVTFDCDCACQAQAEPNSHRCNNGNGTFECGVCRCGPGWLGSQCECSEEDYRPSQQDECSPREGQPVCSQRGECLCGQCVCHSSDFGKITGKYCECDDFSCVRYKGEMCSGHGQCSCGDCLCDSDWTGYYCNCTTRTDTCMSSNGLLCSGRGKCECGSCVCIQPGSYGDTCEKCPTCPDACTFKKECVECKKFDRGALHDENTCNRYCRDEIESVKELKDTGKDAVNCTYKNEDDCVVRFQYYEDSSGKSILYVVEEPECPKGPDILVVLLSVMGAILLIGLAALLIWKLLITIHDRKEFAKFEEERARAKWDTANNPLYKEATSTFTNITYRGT

B1: YH18 synthetic peptide derived from the fourth fas-1 domain of βig-h3 (D-IV YH18) (peptide)
peptide: KELANILKYHIGDEILVS
IC50 of inhibition of HUVEC tube formation on Matrigel: 500 µM

Reference: patent US20070004622A1 (REGEN BIOTECH, published 2007)
